The values below come from paper doi:10.1101/2025.01.14.633037.

Where only a bound is given, the exact number is not on record here.

The data set can be described thus: FRET or BRET; DAmFRET: mEos3.1 fusions expressed in S. cerevisiae, galactose induction 20 hr with 100 uM MG132, partial photoconversion of mEos3.1, flow cytometry; AmFRET between copies of the same protein against its intracellular concentration (approximately 2 to 200 uM). A general note: Bioluminescence resonance energy transfer reports proximity on the nanometre scale.

In turn, “MBP fused to mEos3.1 and poly-TA (28 residues, two continuous TA tracts of length 12)” showed a fold increase of Csat against poly-TA without the solubility tag above 10 fold.
